What was measured:
[1] = biological target: SARS-CoV-2 spike protein receptor binding domain (RBD) (SARS-CoV-2, UniProt P0DTC2 319-539); experiment: ELISA on coated RBD protein
[2] = biological target: SARS-CoV-2 receptor binding domain (RBD), wild type (SARS-CoV-2, UniProt P0DTC2 319-539); experiment: ELISA, RBD protein coated, mAb titrated

B1: C059 (antibody, V domains shown)
VH: QVQLVQSGAEVKKPGASIKVSCKASGYTFTDYSMHWVRQAPGQGLEWMGWINPNSGGTKYAQKFQGWVTMTRDMSITTVYMELTRLRSDATAVFYCARGPLFHKLVYDSWTGYHDGFDIWGQGTMVTVSS
VL: QSALTQPASVSGSPGQSITISCTGTSSDVGGYNYVSWYQHYPGKAPKLMIYEVTHRPSGVSNRFSGSKSGNTASLTISGLQAEDEADYYCSSSTNSSTWVFGGGTKMTVL
EC50 [1]: 1.88 ng/mL

B2: C064 (antibody, V domains shown)
VH: EVQLLESGGDLVQPGGSLRLSCAASGFTFSNYAMSWVRQAPGKGLEWVSAISGSGGNTYYADSVKGRFTISRDNSKNTLYLQMNSLRAEDTAVYYCAKAVHYGGNSDRRFSEPSAPFDYWGQGTLVTVSS
VL: QSALTQPASVSGSPGQSITISCTGTSSDVGSYNLVSWYQQHPGKAPKLMIYEGSKRPSGVSNRFSGSKSGNTASLTISGLQAEDEADYYCCSYAGSSTPYVFGTGTKVTVL
EC50 [1]: 363 ng/mL

B3: C063 (antibody, V domains shown)
VH: EVQLVQSGAEVKKPGDSLKISCKASGYSFTRYWIGWVRQMPGKGLDWMGIIYPGDSDTRYSSSFQGQVTISADKSISTAYLQWSSLKASDTSLYYCVRRASSTNFEFWGQGTLVTVSS
VL: SYELTQPPSVSVAPGQTATITCGGNNIGSKTVHWYQQKPGQAPVVVVYDDSDRPSGIPERFSGSKSGSTATLTITRVEAGDEADYYCQVWDSTSDHYVFGTGTKVAVI
EC50 [1]: 414 ng/mL

B4: C035 (antibody, V domains shown)
VH: EVQLVESGGGLVQPGGSLRLSCAASGFIFSSYWMTWVRQAPGKGLEWVASIKYNGNERNYVDSVKGRFTISRDNARNSLFLQLNNLGAEDTAVYYCARQPESTIWYYFDYWGQGTLVTVSS
VL: SYELTQPPSVSVSPGQTARVTCSGHALPDQYTYWYQQRPGRAPVLVIYVNNQRPSGIPDRFSATTSGTTVTLTISGVQAEDEADYYCQSADSSGSYVVFGGGTKLTVL
EC50 [2]: 15.2 ng/mL

B5: C060 (antibody, V domains shown)
VH: EVQLVESGGGLVQPGGSQRLSCAASGFTVSSNYMSWIRQAPGKGLEWVSVIYSGGSAYYVDSVKGRFTISRDNSKNTLYLQMNSLRPEDTAVYYCARIANYMDVWGKGTTVTVSS
VL: EIVMTQSPATLSVSPGERATLSCRASQSVSSHLAWYQQKPGQAPRLLIYGASTRATGIPTRFSGSGSGTEFTLTISSLQSEDFAVYYCQQYNNWPPLTFGGGTKVEIK
EC50 [1]: 43.5 ng/mL

B6: C065 (antibody, V domains shown)
VH: QVQLQESGPGLVKPSQTLSLTCTVSGGSISSSNYYWSWIRQHPGKGLEWIGYIDYSGGTYYNPSLKSRVTISVDTSKNQFSLKLSSVTAADTAVYYCARVSTTVTTYLVGGFDIWGQGTMVTVSS
VL: IRMTQSPSSLSASVGDRVTITCQASQDITNYLNWYQQKPGKAPKLLLYDASNLETGVPSRFSGSGSGTDFTFTISSLQPEDIATYYCQQYDNLPWTFGQGTKVEIK
EC50 [1]: 29.1 ng/mL

B7: C050 (antibody, V domains shown)
VH: EVQLVESGGGLFQPGGSLRLSCAASGFSVRNNYVSWVRQAPGKGLEWVSVIYSGGTTYYADSVKGRFTISRDISENTLYLQMNSLRAEDTAVYYCAREGDVEGLHDFWSGYSRDRYYFDYWGQGTLVTVSS
VL: QSALTQPASVSGSPGQSIIISCTGTSGDIGGYNYVSWYQQHPGKAPKLMIYDVSFRPSGVSNRFSGSKSDNTASLTISGLQAEDEADYYCSSFTGNNTRVFGTGTKVTVL
EC50 [1]: 1.93 ng/mL

B8: C053 (antibody, V domains shown)
VH: EVQLVESGGGLIQPGGSLRLSCAASGFIVSNNYMSWVRQAPGKGLDWVSVIYSGGTTYYADSVKGRFTISRDNSKNTLYLQMNSLRAEDTAVYYCAREGDVEGYHDSWSGYSRDRYYFDYWGQGTLVTVSS
VL: QSALTQPASVSGSPGQSITISCTGSSSDVGGYNFVSWYQQHPGRAPKLMIYDVSNRPSGVSNRFSGSKSGNTASLTISGLQVEDEADYYCSSYTNNNTRVFGTGTKVTVL
EC50 [1]: 1.53 ng/mL

B9: C052 (antibody, V domains shown)
VH: EVQLVESGGGLIRPGGSLRLSCAASGFSVSNNYMSWVRQAPGKGLEWVSVIYSGGTTYYADSVKGRFNISRDNSKNTVYLQMNSLRAEDTAVYYCAREGDVEGYYDFWSGYSRDRYYFDYWGQGALVTVSS
VL: QSALTQPASVSGSPGQSITISCTGTSSDVGGYNYVSWYQQHPGKAPKLMIYDVSNRPSGVSNRFSGSKSGNTASLTISGLQAEDEADYYCNSYTSNNTRVFGTGTKVTVL
EC50 [1]: 1.23 ng/mL

B10: C054 (antibody, V domains shown)
VH: EVQLVESGGGLIQPGGSLRLSCAASGFTVSNNYMSWVRQAPGKGLEWVSVIYSGGSTYDADSVKGRFTISRDNSKNTLYLQMNSLSAEDTAVYYCAREGDVEGYYDFWSGYSRDRYYFDYWGQGTLVTVSS
VL: QSALTQPASVSGSPGQSITISCTGTSSDVGGYNYVSWYQQHPGKAPKLMIYDVSNRPSGVSNRFSGSKSGNTASLTISGLQAEDEADYYCSSYTSSSARVFGTGTKVTVL
EC50 [1]: 1.58 ng/mL

B11: C062 (antibody, V domains shown)
VH: EVQLVESGGGLVKPGGSLRLTCAASGFTFSTYSMNWVRQAPGKGLEWVSSISSSSSYIYYADSVKGRFTISRDNAKNSLYLQMNSLRAEDTAVYYCARERGYYGGKTPPFLGGQGTLVTVSS
VL: NFMLTQPHSVSESPGKTVTISCTGSSGSIASNYVQWYQQRPGSAPTTVIYEDNQRPSGVPDRFSGSIDSSSNSASLTISGLKTEDEADYYCQSYDSSNYWVFGGGTKLTVL
EC50 [1]: 4.69 ng/mL

B12: C051 (antibody, V domains shown)
VH: EVQLVESGGGLIQAGGSLRLSCAASGFGVRNNYMSWVRQAPGKGLEWVSVIYSGGTTYYADSVKGRFTISRDNSKNTVFLQMNSLRAEDTAVYYCAREGDVEGFSDLWSGYSRDRYYFDYWGQGTLVTVSS
VL: QSALTQPASVSGSPGQSITFSCTGTSSDVGGYNYVSWYQQYPGKAPKLLIYDVTNRPSGVSDRFSGSKSGNTASLTISGLQAEDEADYYCSSFTSSNTRVFGTGTKVTVL
EC50 [1]: 1.65 ng/mL

B13: C057 (antibody, V domains shown)
VH: QVQLVQSGAEVKRPGASVKLSCKASGYIFTDYSIHWVRQAPGQGLEWMGWVNPNSGGGNSAQKFMDWVTMARDTSITTVYMELSRLRSDDTAVYYCARGPLFHKLVYDSWSGYHDGFDIWGQGTMVTVSS
VL: QSALTQPASVSGSPGQSITISCTGTSSDVGAYKFVSWYQQHPGKAPQLIIYEVSNRPSGVSNRFSGSKSGNTASLTISGLQAEDEADYYCSSYTNASTWVFGGGTELTVL
EC50 [1]: 2.31 ng/mL

B14: C058 (antibody, V domains shown)
VH: QVQLVQSGAEVKKPGASVKVSCKASGYIFTDYSMHWVRQAPGQGLEWIGWVNPNSGGTNYAQKFQGWVTMARDTSITTVYMELSRLKSDDTAVYFCARGPLFHRLVYDFWSGYHDGFDMWGQGTMVTVSS
VL: QSALTQPASVSGSPGQSITISCTGTSSDVGGYKFVSWYQQHPGKAPKLMIYEVSNRPSGVSNRFSGSKSGNTASLTISGLQAEDEADYYCNSYTSSSTWVFGGGTKLTVL
EC50 [1]: 2.28 ng/mL

B15: C055 (antibody, V domains shown)
VH: EVQLVESGGGLVQPGGSLRLSCAASGFSVSTKYMTWVRQAPGKGLEWVSVLYSGRTDYYADSVKGRFTISRDSSKNILYLQMSSLRVEDTGFYYCARDSSEVRDHPGHPGRSVGAFDIWSQGTMVTVSS
VL: QSALTQPASVSGSPGQSIAISCTGTSNDVGSYTLVSWYQQYPGKAPKLLIFEDSQRSSGISNRFSGSKSGNTASLTISGLRGEDEADYYCCSYAGSHTFVFGGGTKVTVL
EC50 [1]: 1.25 ng/mL

From patent US20220195015A1 (published 2022)
